Results as given in US20170096478A1, “THERAPEUTIC AGENT FOR INFLAMMATORY DISEASE” (Josai University Corporation, priority 2012, published 2017).

Key:
[1] = system: renal ischemia reperfusion injury; experiment: Test Example 9: acute renal failure due to renal ischemia reperfusion injury, check test 1; assay type: in vivo, male Wistar rat; conditions: autopsy after the end of the test; vs control group
Description: Right kidney was removed from male Wistar rat (n=4) under general anesthesia, and then left kidney of the rat was subjected to ischemia reperfusion with vascular clip to prepare a model. For SSV mAb-administered group, SSV mAb was then administered in an amount of 10 mg/kg 30 minutes before preparing the model and immediately after the reperfusion For control group, IgG (SIGMA) was administered in place of SSV mAb in the same manner. Then, urea nitrogen (BUN) and creatinine (Cr) in serum at 24 hours after preparing the model were measured and the nephropathy level was evaluated. Further, the rats were subjected to autopsy after the end of the test, and histological evaluation was performed.

[2] = system: lipopolysaccharide (LPS)-induced lethal sepsis; experiment: Test Example 8-5: measurement of inflammation-associated cytokine in serum; assay type: in vivo, BALB/c mice; conditions: vs control group
Description: (§1) BALB/c mice (bodyweight of 20 g to 30 g when starting the experiments, n=10) were raised in a plastic cage under SPF and thermo-hydrostat (22±1° C., 55±5%) conditions under 12-hour light-dark cycle. Foods and water were supplied ad libitum. Then, by intraperitoneally administering LPS to the mice at a dose of 40 mg/kg, lipopolysaccharide (LPS)-induced lethal sepsis as an inflammatory disease was induced in the same manner as Test Example 7. SSV mAb dissolved in physiological saline was intraperitoneally administered totally 3 times, i.e., at 30 minutes before, 6 hours after and 12 hours after the intraperitoneal administration of LPS, in an amount of 100 μg/dose in terms of the amount of SSV mAb. The survival of the animals thereafter was tested. To the control group, IgG (SIGMA) dissolved in physiological saline was administered in place of SSV mAb in the same manner.
In Test Example 8, serum was obtained from venous blood of the control group and the SSV mAb-administered group every 3 hours. Then, the concentrations of inflammatory cytokine (TNF-α, IL-1β, IL-6) and inhibitory cytokine (IL-10) in obtained samples were measured by using a commercially available measurement kit using ELISA.

[3] = system: renal ischemia reperfusion injury; experiment: Test Example 10: acute renal failure due to renal ischemia reperfusion injury, check test 2; assay type: in vivo, male Wistar rats; conditions: autopsy after the end of the test; vs control group
Description: Right kidney was removed from male Wistar rat (n=4) under general anesthesia, and then left kidney of the rat was subjected to ischemia reperfusion with vascular clip to prepare a model. For SSV mAb-administered group, SSV mAb was then administered in an amount of 10 mg/kg 30 minutes before preparing the model and immediately after the reperfusion Test was carried out in the same manner as Test Example 10 except that male Wistar rats (n=4-6) were used and except that, for SSV mAb-administered group, SSV mAb was administered in an amount of 10 mg/kg 30 minutes before preparing the model and 6 hours after the reperfusion. For control, IgG (SIGMA) was administered in place of SSV mAb in the same manner. Then, the concentrations of urea nitrogen (BUN) and creatinine (Cr) in serum at 24 hours after preparing the model were measured and the nephropathy level was evaluated. Further, the rats were subjected to autopsy after the end of the test, and histological evaluation was performed.

[4] = system: lipopolysaccharide (LPS)-induced lethal sepsis; experiment: Test Example 8-3: staining test of lung tissue; assay type: in vivo, BALB/c mice; conditions: after the end of Test Example 8
Description: as §1
After the end of Test Example 8, lung tissue sections were each obtained from […] of control group and SSV mAb-administered group, and stained by using hematoxylin and eosin stain (from Wako Pure Chemical Industries, Ltd.) according to the method conducted by Hasegawa et al. (Surg Res. 2012 May 1; 174(1):136-41.). Next, micrographs of the obtained samples were taken.
As a reference, micrographs of lung tissue slices from healthy rats were taken in the same manner.

histone H2B = experiment: ELISA affinity for histone H2B; assay type: binding; conditions: absorbance at 405 nm; 5 μg/mL antibody; compared with histone H1
Description: (§2) The Affinities between histone H1 or core histone and SSVmAb were determined by ELISA.
(§3) A 96 well microplate was coated with histone H1, H2A, H2B, H3 or H4. Each histone used was dissolved in 100 mM sodium carbonate buffer (pH 9.3). The plate was washed with PBS-tween 20 (0.05%), and blocked with 3% skim milk and 1% BSA for 1 hour. To each well, 5 μg/mL SSVmAb was added, and incubated for 1 hour. Bound SSVmAb was detected using peroxidase (HRP) conjugated anti mouse IgG1 Ab (SIGMA), and incubated for 1 hour. Bound SSVmAb was detected using the ABTS [2,2′-azino-bis(3-ethylbenzothiazoline-sulfonic acid)] substrate solution, and absorbance at 405 nm was measured using Multiskan Ascent (Thermo Fisher Scientific Inc., Waltham, Mass.).

histone H4 = histone H4 (Homo sapiens, UniProt P62805); experiment: ELISA affinity for histone H4; assay type: binding; conditions: absorbance at 405 nm, 5 μg/mL antibody, compared with histone H1
Description: as §2, §3
(§4) After the end of the tests, binding assays of SSV mAb with histone H1, histone H3 and histone H4 were carried out by ELISA in the same manner as Test Example 2.

[5] = system: T cells from a Balb/c mouse; experiment: MLR tests with T cells with or without mitochondria ATP synthase knock-down by siRNA; assay type: cell-based
[6] = system: lipopolysaccharide (LPS)-induced lethal sepsis; experiment: Test Example 7: survival in LPS-induced lethal sepsis; assay type: in vivo, BALB/c mice
Description: as §1, with “n=6)” for “n=10)”, “Lipopolysaccharide (LPS)-induced lethal sepsis which is generally employed as an experimental sepsis model was induced” for “Then,”, “LPS” for “LPS to the mice”, “mg/kg.” for “mg/kg, lipopolysaccharide (LPS)-induced lethal sepsis as an inflammatory disease was induced in the same manner as Test Example 7.”

histone H1 = experiment: ELISA affinity for histone H1; assay type: binding; conditions: absorbance at 405 nm; 5 μg/mL antibody; compared among histones
Description: as §2, §3, §4

B1: SSV mAb: monoclonal antibody (IgG1) produced by Mouse-Mouse hybridoma SSV-C 93-3 (NITE BP-972), raised against peptide … (SEQ ID NO:1)-KLH conjugate (antibody, V domains shown)
VH: EIQLQQSGAELVKPGASVKISCKASGYSFTGYNMNWVKQSHGKSLEWIGNINPYYGSTSYNQKFKGKATLTVDKSSSTAYMQLNSLTSEDSAVYYCARSPYYSNYWRYFDYWGQGTTLTVSS
VL: QIVLSQSPAILSASPGEKVTMTCRASSSVSYMHWYQQKPGSSPKPWIYATSNLASGVPARFSGSGSGTSYSLTISRVEAEDAATYYCQQWSSNPWTFGGGTKLEIK
- histological evaluation of kidney [1]: better than that of the control group
- IL-1β concentration in blood sample [2]: significantly decreased
- IL-6 concentration in blood sample [2]: significantly decreased
- IL-10 concentration in blood sample [2]: significantly increased
- TNF-α concentration in blood sample [2]: significantly decreased
- histological evaluation of kidney [3]: better than that of the control group
- inflammation in lungs (hematoxylin and eosin stained lung tissue sections) [4]: not observed
- affinity for histone H2B (ELISA) (histone H2B): higher than the affinity for histone H1
- affinity for histone H4 (ELISA) (histone H4): binding capacity
- affinity for histone H4 (ELISA) (histone H4; listed as SSVmAb): higher than the affinity for histone H1
- cell growth inhibition in MLR compared with Isotype IgG1 ([5]; ATP synthase knocked down): no significant difference
- cell growth inhibition in MLR compared with Isotype IgG1 ([5]; ATP synthase not knocked down): significantly inhibited cell growth
- cumulative survival rate ([6]; 70 hours after administration of LPS): 0.7
- survival rate ([6]; 70 hours after administration of LPS 40 mg/kg i.p., 100 μg/dose i.p. 3 times): 70%
- survival rate relative to that of the control group ([6]; 70 hours after administration of LPS, p<0.05): about 3.5 times
- affinity for histone H1 (ELISA) (histone H1): binding capacity
